Data published in the supplement of paper PMC10724198.
± gives the standard deviation of the averaged measurements.

Test system: Saccharomyces cerevisiae
Assay: protein stability index of tFT-peptide fusion (C-terminal peptide) (PSI (0-1 scale)); higher = more stable (slower turnover)
Conditions: genetic background: wild type; temperature: 30 C
Description: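 Multiplexed protein stability (MPS) profiling in S. cerevisiae. Random 12-aa peptides (tFT-X12 library) are fused to the C-terminus of a sfGFP-mCherry tandem fluorescent timer, after mCherry and a GGGS linker. Cells are FACS-sorted into 8 mCherry/sfGFP bins and deep-sequenced. The protein stability index (PSI) is the read-weighted bin average, scaled from 0 (unstable) to 1 (stable). Only peptides with >10 reads are reported; cells were grown at 30 °C in SC-His with glucose.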
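Further: PSI is a weighted mean of sequencing reads over stability bins, variants kept only with over 10 reads, mCherry proximal and sfGFP distal, peptide attached via GGGS linker.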

| Sequence | protein stability index |
| --- | --- |
| IQSRDDTVEGRK | 0.63 ± 0.0095 |
| IRAKKLNKSNNK | 0.7028 ± 0.0053 |
| IREQQKNQNHKE | 0.642 ± 0.051 |
| IRGAARRRTQGY | 0.731 ± 0.038 |
| IRGGGGLGGGGV | 0.703 ± 0.023 |
| IRGIKSRKFTSV | 0.753 ± 0.0079 |
| IRGYSVKRIRED | 0.683 ± 0.045 |
| IRHSTRTRPSSV | 0.745 ± 0.03 |
| IRNACRINESQC | 0.698 ± 0.017 |
| IRPFSPAPPRYP | 0.722 ± 0.075 |
| IRPPPPPPPRAA | 0.59 ± 0.07 |
| IRRSVVRCLFTE | 0.707 ± 0.056 |
| IRTITSVQTFPE | 0.673 ± 0.029 |
| ISCFRLGFVRKI | 0.535 ± 0.0058 |
| ISCGERSRGGGK | 0.6122 ± 0.0029 |
| ISEGKTIIYCLW | 0.523 ± 0.081 |
| ISEGNNQNLSQT | 0.689 ± 0.011 |
| ISEGSSRFRTSL | 0.6542 ± 0.0025 |
| ISFVFSDSLFPI | 0.785 ± 0.012 |
| ISGIKNKKKKGT | 0.684 ± 0.066 |
| ISHPTPQSVPAI | 0.612 ± 0.0063 |
| ISLGVDFSFCSL | 0.7014 ± 0.0042 |
| ISLTSYVCGRVL | 0.648 ± 0.014 |
| ISLWALSQLPVP | 0.79 ± 0.19 |
| ISPGWLSRLWVR | 0.629 ± 0.0083 |

| Sequence | protein stability index |
| --- | --- |
| ISPRLGLPLAPL | 0.732 ± 0.067 |
| ISPTTFSTHDRC | 0.665 ± 0.077 |
| ISQAIMTNPIKE | 0.598 ± 0.14 |
| ISVPMPSFGPLP | 0.6938 ± 0.002 |
| ISVPPFPAPPPP | 0.745 ± 0.13 |
| ISYLSILTSCPW | 0.65423 ± 0.00026 |
| ISYQVDIIKGKI | 0.6781 ± 0.00071 |
| ITFTCRHQGKKK | 0.759 ± 0.095 |
| ITRVGSLENSQV | 0.635 ± 0.013 |
| ITSSPNVGKTTN | 0.713 ± 0.024 |
| ITSWCNVFLGRA | 0.71 ± 0.018 |
| IVADKSPLSSPP | 0.6947 ± 0.0017 |
| IVENSLEEKERR | 0.673 ± 0.056 |
| IVGIEGYNEIKT | 0.803 ± 0.27 |
| IVKFVRAIGRKK | 0.664 ± 0.028 |
| IVPPPHRHRRSI | 0.824 ± 0.064 |
| IVSNLILSKRCN | 0.652 ± 0.064 |
| IVTLPTNPYTPV | 0.717 ± 0.046 |
| IVTQGCLFFLVR | 0.687 ± 0.038 |
| IWTSFKRRRWNF | 0.532 ± 0.033 |
| IWVGNEENEEII | 0.669 ± 0.082 |
| IYSWSAALFHCR | 0.75 ± 0.1 |
| IYVWALSPVTLP | 0.628 ± 0.019 |
| KAGCDYYHRRSF | 0.675 ± 0.061 |
| KAGDRRPDNHSN | 0.66 ± 0.064 |

| Sequence | protein stability index |
| --- | --- |
| KANIKGIKTRIT | 0.642 ± 0.076 |
| KARNIVESGKTQ | 0.722 ± 0.038 |
| KASAASLFILMS | 0.611 ± 0.012 |
| KASEALGYTSNE | 0.675 ± 0.037 |
| KATNLNKVRRWE | 0.693 ± 0.048 |
| KCCRVTCCGGLR | 0.65 ± 0.028 |
| KCLALSAGWIAT | 0.627 ± 0.033 |
| KCRGRGRQEAFE | 0.6643 ± 0.0018 |
| KCVDSREKITMD | 0.672 ± 0.072 |
| KDGGRLRVDQWI | 0.706 ± 0.076 |
| KDKKERTTEKKT | 0.693 ± 0.13 |
| KDLFDLYLKRLL | 0.65 ± 0.0098 |
| KDVYEKHLNKQT | 0.722 ± 0.1 |
| KEDGEIIDRYVL | 0.616 ± 0.074 |
| KEEKLKNKITKY | 0.679 ± 0.011 |
| KEEKRMKLKKLQ | 0.537 ± 0.082 |
| KEEYSYQRVGEL | 0.661 ± 0.015 |
| KEGDMWRVSTLD | 0.682 ± 0.016 |
| KELGGSSEITEI | 0.658 ± 0.072 |
| KELIGITYKNSS | 0.6766 ± 0.0058 |
| KEMRCRKKKEGK | 0.683 ± 0.048 |
| KEQNKKQKAKDL | 0.719 ± 0.1 |
| KEQYFKGSKKPI | 0.651 ± 0.029 |
| KERKNKKINRKF | 0.686 ± 0.093 |
| KEVDGRALVAEE | 0.655 ± 0.035 |

| Sequence | protein stability index |
| --- | --- |
| KEVNEDIDKAKS | 0.782 ± 0.18 |
| KEWGGEGRDAWG | 0.6834 ± 0.0061 |
| KEYKKKKKKIDK | 0.671 ± 0.022 |
| KFIVQNENSGQC | 0.677 ± 0.041 |
| KFKVLKVLEVRL | 0.6453 ± 0.0019 |
| KFLQRTPGHSSE | 0.699 ± 0.048 |
| KGDCGGRGCGRH | 0.682 ± 0.0076 |
| KGKKTKQKRAKK | 0.6521 ± 0.0064 |
| KGKNTEKEEEEK | 0.685 ± 0.019 |
| KGQPTTRVKEEW | 0.654 ± 0.0091 |
| KGRAERKKDKKR | 0.684 ± 0.025 |
| KGRAGTDVPLAR | 0.712 ± 0.052 |
| KGRQVDQALVRG | 0.634 ± 0.019 |
| KGTRKPSTKIIV | 0.667 ± 0.074 |
| KGWGDGPGSYVN | 0.68 ± 0.035 |
| KGYEGGRRCELE | 0.696 ± 0.039 |
| KHCFDIEILRYQ | 0.664 ± 0.016 |
| KHFLFSVVHFSG | 0.696 ± 0.028 |
| KHSTTSRCVWYT | 0.627 ± 0.13 |
| KIDEQNKNKMGM | 0.615 ± 0.082 |
| KIDKLRKRQRKK | 0.664 ± 0.017 |
| KIENQKKRLQRT | 0.708 ± 0.028 |
| KIGVHRGRGGRM | 0.614 ± 0.13 |
| KIKESIKIKKKR | 0.6789 ± 0.0027 |
| KIMIGQPDGINV | 0.65 ± 0.015 |

| Sequence | protein stability index |
| --- | --- |
| KIQLTTMKNHGK | 0.685 ± 0.013 |
| KIRRIHRNVVKG | 0.786 ± 0.055 |
| KKEEQEKKNRNK | 0.711 ± 0.027 |
| KKEGIWEGERVG | 0.724 ± 0.011 |
| KKELKKRNKAKK | 0.66 ± 0.012 |
| KKENKERNNEYE | 0.708 ± 0.081 |
| KKGKQQKTEKNG | 0.802 ± 0.26 |
| KKGKSKKKGKKT | 0.6906 ± 0.0018 |
| KKGVSNKVSGFT | 0.719 ± 0.014 |
| KKIKKKKNKKQE | 0.735 ± 0.075 |
| KKKIERKKNKEK | 0.743 ± 0.071 |
| KKKKEKNKHNIR | 0.72 ± 0.009 |
| KKKKKIEQRKQE | 0.67 ± 0.017 |
| KKKKKKKESRSS | 0.68 ± 0.045 |
| KKKKKKKKNMKR | 0.683 ± 0.024 |
| KKKKKKKKTNKE | 0.656 ± 0.11 |
| KKKKKKKMTNLK | 0.809 ± 0.054 |
| KKKKKKKQIKKK | 0.747 ± 0.026 |
| KKKKKKKRNGAP | 0.667 ± 0.05 |
| KKKKKKRIREKR | 0.721 ± 0.048 |
| KKKKKKRNKQKN | 0.752 ± 0.043 |
| KKKKKSEIPKIT | 0.686 ± 0.084 |
| KKKKNKLRNKQE | 0.656 ± 0.015 |
| KKKKNNKETKNK | 0.705 ± 0.015 |
| KKKKPKNKSKDK | 0.634 ± 0.095 |

| Sequence | protein stability index |
| --- | --- |
| KKKKPKQKQKET | 0.686 ± 0.016 |
| KKKKTKKKKINI | 0.605 ± 0.0077 |
| KKKKTKKSKQKK | 0.721 ± 0.0089 |
| KKKLKRTIKKIA | 0.481 ± 0.034 |
| KKKNEKQNRLKN | 0.769 ± 0.029 |
| KKKNKENKKKKK | 0.737 ± 0.023 |
| KKKREKKKENTK | 0.7108 ± 0.0067 |
| KKKRIERKEKGE | 0.676 ± 0.059 |
| KKKRMKIKCIGI | 0.647 ± 0.063 |
| KKKTIKNNERSK | 0.69 ± 0.071 |
| KKKYKKNKKKNK | 0.65 ± 0.033 |
| KKLGLRLTFLHC | 0.564 ± 0.043 |
| KKNEEKRRGEGK | 0.67 ± 0.049 |
| KKNERKEKNNTN | 0.673 ± 0.014 |
| KKNETKQEKNTR | 0.689 ± 0.026 |
| KKNEVIKKNLRK | 0.616 ± 0.063 |
| KKNIKKKRNIEK | 0.625 ± 0.04 |
| KKNIKKKTKQKE | 0.696 ± 0.007 |
| KKNKNKEYCKVK | 0.734 ± 0.082 |
| KKNNNINKHTST | 0.6652 ± 0.0058 |
| KKNYEKPIRKYQ | 0.642 ± 0.02 |
| KKQHTKKKKKKR | 0.752 ± 0.041 |
| KKQKKQKKKSHK | 0.715 ± 0.047 |
| KKRDKKKLRRVE | 0.672 ± 0.044 |
| KKRGKNSKAQRE | 0.694 ± 0.013 |

| Sequence | protein stability index |
| --- | --- |
| KKRHYSCYKNTN | 0.725 ± 0.015 |
| KKSIVEARLSNM | 0.58 ± 0.075 |
| KKTNTQTKKKTK | 0.709 ± 0.075 |
| KKTQKNIKKKAK | 0.679 ± 0.025 |
| KKTRRGSNKKEG | 0.681 ± 0.025 |
| KKTSQKQKGKRQ | 0.671 ± 0.12 |
| KLCGIYMVGGKK | 0.65093 ± 0.00038 |
| KLGLLKVRVCDG | 0.608 ± 0.0061 |
| KLGRWGARGSGR | 0.655 ± 0.021 |
| KLKTKQNKERNK | 0.757 ± 0.076 |
| KLREKKLLKIAE | 0.679 ± 0.042 |
| KLSSQAWMISEK | 0.695 ± 0.055 |
| KLVGFRPHAWWF | 0.701 ± 0.016 |
| KNIIEKKIKKRK | 0.711 ± 0.0049 |
| KNKKEKKKVKRT | 0.687 ± 0.026 |
| KNKKKKKTKKKK | 0.792 ± 0.079 |
| KNKKKNKNNKKK | 0.7048 ± 0.00079 |
| KNKKNKKKTPTT | 0.727 ± 0.013 |
| KNNVVKIEEEKK | 0.751 ± 0.013 |
| KNRHWNKKIRKC | 0.6533 ± 0.0065 |
| KNRKSYTINSRK | 0.656 ± 0.055 |
| KPKANTEKIPIQ | 0.68 ± 0.018 |
| KPKHNKKILEKK | 0.671 ± 0.037 |
| KPKLSHPQPLRI | 0.699 ± 0.016 |
| KPLPPPEFRPHP | 0.69 ± 0.02 |

| Sequence | protein stability index |
| --- | --- |
| KPRFRATPRQTT | 0.713 ± 0.037 |
| KPRLARLSLSLL | 0.784 ± 0.14 |
| KQKQRKERIKRK | 0.688 ± 0.069 |
| KQVIIEKSIQQR | 0.661 ± 0.051 |
| KRAPEPPTPPAP | 0.672 ± 0.015 |
| KRGKNKKRKQKK | 0.716 ± 0.0076 |
| KRNKITKKDRIN | 0.613 ± 0.031 |
| KRNKKCKKIKKK | 0.677 ± 0.11 |
| KRRNKEHNKIRD | 0.652 ± 0.052 |
| KSAGNWSKGKRE | 0.713 ± 0.083 |
| KSGGWLWVGGGG | 0.748 ± 0.039 |
| KSHKKKKKNKNF | 0.539 ± 0.0035 |
| KSKGGGTEPNRR | 0.695 ± 0.009 |
| KSKKKKKNKTNR | 0.6792 ± 0.0022 |
| KSKRKKKKQTKR | 0.653 ± 0.024 |
| KSVGKGIIQLRL | 0.726 ± 0.042 |
| KTECMAIEKTLV | 0.686 ± 0.033 |
| KTENGRSNSETR | 0.686 ± 0.074 |
| KTGLMRGHEVAS | 0.673 ± 0.03 |
| KTGNKKQRKKKV | 0.753 ± 0.032 |
| KTHTIGPSPYYD | 0.649 ± 0.0088 |
